Test [1] deals with T1, recombinant HER2 ECD domain (human, UniProt P04626 23-652).
T1 construct: extracellular domain; also called extracellular domain of HER2
As to the kind of experiment: Western blot.

For test [2], the target named is HER2 antigen (as used in the ELISA binding assays and on the optoelectronic biosensors) (human) (UniProt P04626). As to the kind of experiment: direct ELISA, lot SDS-20220126 after 340 days at -80°C; amount of antibody that binds half of the available antigen. Background: ELISA stands for enzyme-linked immunosorbent assay.
For test [3], the target named is T2, human epidermal growth factor receptor 2 (HER2), native, in SK-BR-3 and SK-OV-3 cells and cell lysates (human, UniProt P04626 23-1255).
T2 construct: whole, on cells; Detected in denatured cell lysates (Western blot) and in fixed cells (immunofluorescence); also called HER2 antigen; HER2 protein
The experiment in a line: immunofluorescence on fixed cells.

Test [4] concerns the target HER2 antigen (as used in the ELISA binding assays and on the optoelectronic biosensors) (human) (UniProt P04626). As to the kind of experiment: direct ELISA, lot SDS-20211231 after 352 days at -80°C; amount of antibody that binds half of the available antigen.
Test [5] has the same target. As to the kind of experiment: direct ELISA, lot SDS-20211201 after 430 days at -80°C; amount of antibody that binds half of the available antigen.
For test [6] the target is unchanged. As to the kind of experiment: direct ELISA, lot SDS-20220120 after 341 days at -80°C; amount of antibody that binds half of the available antigen.
For test [7] the target is unchanged. As to the kind of experiment: in vitro antigen binding curve (ELISA), half of the effective dose.

Drawing on patent EP4345113A1 (SDS Optic Spolka Akcyjna, dated 2024), this text covers binding result and ED50 for two molecules.

B1: mAb anti-human-HER2/70.21.73.67 - clone 67 (antibody, V domains shown)
VH: EIQLQQSGPELVKPGASVRVSCKASGYSFTDYNMYWVRQSQGESLEWIGYIDHYNGNTGYNQKFRDKATLTVDKASSTAFMHLNSLTSEDSAVYYCARHYDYGAMDYWGQGTSVTVSS
VL: DIVMTQSQKFMSTSVGDRVSVTCKASQNVGTNVAWYQQKPGQSPKALIYSASYRYSGVPDRFTGSGSGTDFTLTISTVQSEDLAEYFCQHYYIYPLTFGAGTKLELKR
notes: Used as a biotin complex in the sandwich ELISA; No cleavage site is stated; also called mAb anti-human-HER2/clone 67; anti-HER2/70.21.73.67
Consider B1, for which the binding result in test [1] and in test [3] was “binds” in each case. Moreover, the ED50 in test [2] came out at 0.0043 µg; in test [4], 0.0043 µg; in test [5] it was 0.0046 µg; in test [6], 0.004 µg; in test [7], 0.235 nM.

B2: mAb anti-human-HER2/70.27.58 - clone 58 (antibody, V domains shown)
VH: EVQLQQSGPELEKPGASVKISCKASGYSFTGYNMNWVKQSNGKSLEWIGTIDPNYGTSYNQKFKGKATLTVDKSSSTAYMHLKSLTSEDSSVYYCARRKVNYEAWFAFWGQGTLVTVSA
VL: DIVLTQSPASLAVSLGQRATISCRASESVDSYGNSFMHWYQQKPGQPPKLLIYRASNLESGIPARFSGSGSRTDFTLTINPVEADDVATYYCQQSNEDPFTFGSGTKLEIKR
notes: also called mAb anti-human-HER2/clone 58; anti-HER2/70.27.58
For B2, the binding result in test [1] and in test [3] was “binds” in each case. In test [7], this molecule registered an ED50 of 0.0922 nM.
